According to the supplement of paper PMC9112550, “Optimization of the antimicrobial peptide Bac7 by deep mutational scanning” (BMC Biology, 2022):

System: Escherichia coli TOP10
Assay: shrunken log2 fold change of peptide-encoding DNA abundance (4.5 h post-induction vs induction); higher = less antimicrobial activity (less host growth inhibition)
Settings: time post-induction: 4.5 h; library: site-saturation at positions 5, 18, 19, 20
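Also: peptides expressed intracellularly from a pBAD plasmid library in pooled LB shake-flask culture, induced with 0.3% L-arabinose, DNA abundance read by NGS, three biological replicates, DESeq2 with apeglm shrinkage.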

Sequence	shrunken log2 fold change
RRIRNRPPRLPRPRPRPPNTPRP	-0.0466
RRIRWRPPRLPRPRPRPEHYPRP	-1.14
RRIRLRPPRLPRPRPRPIRDPRP	-0.0112
RRIRKRPPRLPRPRPRPIIPPRP	0.152
RRIRERPPRLPRPRPRPNLFPRP	0.0891
RRIRDRPPRLPRPRPRPTAEPRP	1.4
RRIRRRPPRLPRPRPRPYVFPRP	-0.623
RRIRLRPPRLPRPRPRPMSPPRP	0.0855
RRIRRRPPRLPRPRPRPRRIPRP	0.251
RRIRCRPPRLPRPRPRPNPCPRP	-0.209
RRIRTRPPRLPRPRPRPPQNPRP	0.329
RRIRVRPPRLPRPRPRPPLEPRP	0.431
RRIRKRPPRLPRPRPRPNHEPRP	-0.0766
RRIRCRPPRLPRPRPRPAPSPRP	0.504
RRIRLRPPRLPRPRPRPVQTPRP	0.102
RRIRWRPPRLPRPRPRPPDYPRP	0.184
RRIRPRPPRLPRPRPRPDGHPRP	0.0433
RRIRVRPPRLPRPRPRPGTWPRP	-0.0352
RRIRGRPPRLPRPRPRPRFGPRP	0.662
RRIRSRPPRLPRPRPRPMRLPRP	0.0162
RRIRIRPPRLPRPRPRPTNKPRP	-0.687
RRIRSRPPRLPRPRPRPVTQPRP	0.168
RRIRGRPPRLPRPRPRPLYMPRP	0.185
RRIRKRPPRLPRPRPRPGRYPRP	0.426
RRIRSRPPRLPRPRPRPCGMPRP	-0.0447

Sequence	shrunken log2 fold change
RRIRFRPPRLPRPRPRPIHVPRP	-0.335
RRIRSRPPRLPRPRPRPQNCPRP	0.0871
RRIRPRPPRLPRPRPRPEAWPRP	-0.0196
RRIRERPPRLPRPRPRPMSHPRP	-0.741
RRIRGRPPRLPRPRPRPKAEPRP	1.35
RRIRWRPPRLPRPRPRPPHVPRP	0.444
RRIRIRPPRLPRPRPRPVQLPRP	-0.0585
RRIRGRPPRLPRPRPRPNAKPRP	1.22
RRIRWRPPRLPRPRPRPIMIPRP	-0.28
RRIRSRPPRLPRPRPRPWEPPRP	-0.029
RRIRVRPPRLPRPRPRPDIIPRP	-0.35
RRIRTRPPRLPRPRPRPQMMPRP	-0.0792
RRIRDRPPRLPRPRPRPNMYPRP	-0.229
RRIRNRPPRLPRPRPRPKRQPRP	-0.0692
RRIRGRPPRLPRPRPRPKNCPRP	-0.111
RRIRQRPPRLPRPRPRPSFDPRP	0.182
RRIRTRPPRLPRPRPRPHHKPRP	-0.614
RRIRWRPPRLPRPRPRPANPPRP	0.165
RRIRIRPPRLPRPRPRPKCMPRP	-0.229
RRIRYRPPRLPRPRPRPAWKPRP	0.0184
RRIRARPPRLPRPRPRPFQLPRP	-0.94
RRIRYRPPRLPRPRPRPSHFPRP	-0.411
RRIRLRPPRLPRPRPRPQDIPRP	0.133
RRIRTRPPRLPRPRPRPFIHPRP	-0.0383
RRIRQRPPRLPRPRPRPIVEPRP	0.0141

Sequence	shrunken log2 fold change
RRIRPRPPRLPRPRPRPEGLPRP	0.491
RRIRWRPPRLPRPRPRPYAYPRP	0.0461
RRIRDRPPRLPRPRPRPKEVPRP	0.174
RRIRFRPPRLPRPRPRPFDTPRP	-0.486
RRIRDRPPRLPRPRPRPKFAPRP	-0.0673
RRIRSRPPRLPRPRPRPMKQPRP	0.00692
RRIRVRPPRLPRPRPRPRQYPRP	0.00898
RRIRNRPPRLPRPRPRPGQDPRP	-0.0269
RRIRMRPPRLPRPRPRPPMRPRP	1.62
RRIRKRPPRLPRPRPRPCFMPRP	-0.0787
RRIRIRPPRLPRPRPRPKLFPRP	-0.179
RRIRFRPPRLPRPRPRPLAWPRP	0.32
RRIRFRPPRLPRPRPRPRNEPRP	-0.0379
RRIRTRPPRLPRPRPRPPHEPRP	0.373
RRIRFRPPRLPRPRPRPSVNPRP	-0.388
RRIRCRPPRLPRPRPRPEMEPRP	0.00408
RRIRARPPRLPRPRPRPYVIPRP	-0.434
RRIRCRPPRLPRPRPRPYDQPRP	-0.16
RRIRSRPPRLPRPRPRPFAFPRP	-0.0807
RRIRFRPPRLPRPRPRPVPEPRP	0.098
RRIRSRPPRLPRPRPRPSRQPRP	-0.447
RRIRLRPPRLPRPRPRPKHFPRP	-0.494
RRIRKRPPRLPRPRPRPFPRPRP	0.297
RRIRHRPPRLPRPRPRPMRGPRP	0.384
RRIRARPPRLPRPRPRPPWWPRP	1.03
